# According to patent publication US20200317803A1, “ANTI-CD73, ANTI-PD-L1 ANTIBODIES AND CHEMOTHERAPY FOR TREATING TUMORS” (MEDIMMUNE, LLC, priority 2019, published 2020):
# “Also recorded” adds a separate entry of the source.
# Legend:
# EGFRm NSCLC = settings: ATLANTIC trial, comparison for EGFRm NSCLC; cited from earlier work
# [1] = system: endogenous pathogen response (EBV, CMV); assay: single dose cynomolgus monkey study: endogenous pathogen response; format: in vivo, cynomolgus monkeys; settings: single IV 1, 10 or 107.8 mg/kg
# Method: (§1) Five male cynomolgus monkeys were administered a single IV bolus dose of oleclumab at a dose of 0 mg/kg, 1 mg/kg, 10 mg/kg or 107.8 mg/kg. Serum was collected prior to the first dose at 0.08, 0.5, 2, 8 and 24 hours and 2, 3, 5, 7, 10, 14, 21, 28 and 35 days post dosing.
# The endogenous pathogen response was also investigated by endogenous pathogen verification. Endogenous pathogen antibodies were measured using chemiluminescent ELISA on days 1, 8, 14, 15, and 29 and endogenous pathogen T cell IFN-γ ELISPOT was measured on days −14 and 29. LCV (monkey homologue of EBV) was detectable at low levels in most cynomolgus monkeys (FIG. 4).
# CD73 [2] = biological target: T1, CD73 (Homo sapiens, UniProt P21589); assay: pharmacokinetic/pharmacodynamic model and human dose prediction; settings: determined from tumor suppression data in syngeneic mice
# T1 construct: from tissue; host or cells: patients' serum, peripheral T cells and tumour biopsies
# T1 sequence (P21589 27-549): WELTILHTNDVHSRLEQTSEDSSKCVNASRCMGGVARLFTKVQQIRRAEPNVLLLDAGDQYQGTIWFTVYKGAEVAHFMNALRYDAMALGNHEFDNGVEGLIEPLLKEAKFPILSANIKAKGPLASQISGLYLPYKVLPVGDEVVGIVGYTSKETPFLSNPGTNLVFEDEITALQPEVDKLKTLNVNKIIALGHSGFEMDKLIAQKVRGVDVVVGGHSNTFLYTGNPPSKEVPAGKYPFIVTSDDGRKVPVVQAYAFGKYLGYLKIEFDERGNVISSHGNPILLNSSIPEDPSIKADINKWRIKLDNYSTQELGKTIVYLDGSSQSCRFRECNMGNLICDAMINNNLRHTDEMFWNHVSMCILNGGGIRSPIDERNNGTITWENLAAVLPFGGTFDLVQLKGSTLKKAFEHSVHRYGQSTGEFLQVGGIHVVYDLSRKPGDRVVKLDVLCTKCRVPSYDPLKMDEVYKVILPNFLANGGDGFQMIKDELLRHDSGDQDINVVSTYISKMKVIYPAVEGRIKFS
# Source text: A two-compartment model with linear and target-mediated drug disposition clearance was used to adequately describe the MEDI9447 serum concentration profiles. This model was used to describe the monkey pharmacokinetic data and then resulting parameters were allometrically scaled to humans to predict doses using simulation. (See Example 2.)
# FIGS. 6A and 6B show cynomolgus pharmacokinetic modeling and human dose prediction. Cynomolgus serum MEDI9447 concentration profiles (FIG. 6A) were described adequately all three different dose levels by a non-linear model shown schematically in (FIG. 5). Following allometric scaling of the pharmacokinetics parameters from this model, human serum concentration profiles were simulated (FIG. 6B). […] (See Example 2.)
# Oleclumab dose selection was based on nonclinical data and clinical safety margins based on nonclinical safety data as described above for mice and monkeys. The pharmacologically driven starting dose level of 5 mg/kg oleclumab was anticipated to have 98% to 91% saturation of CD73 in the first dosing interval (peak and trough, respectively). […] The dose-escalation scheme in this study was designed to achieve higher and more sustained suppression of CD73 target, while maintaining adequate safety margins. […]
# [3] = system: exogenous antigen (KLH) response; assay: single dose cynomolgus monkey study: exogenous antigen (KLH) response; format: in vivo, cynomolgus monkeys; settings: single IV 1, 10 or 107.8 mg/kg
# Method: as §1
# To determine immune modulation, the exogenous antigen (KLH) response was measured. The exogenous antigen (KLH) response was determined by first immunizing the monkeys on day 1 with adjuvant free KLH. KLH T cell-dependent antibody response (TDAR) was conducted on days 7, 8, 11, 15, 22, 29, and 36. Ex vivo KLH stimulation of PBMC IFN-γ and IL-2 ELISPOT was determined on days 1, 4, 8, 7, 15, and 22.
# [4] = system: blood or peripheral blood mononuclear cell from healthy donors; assay: human in vitro cytokine release assays; format: cell-based; settings: in solution or immobilized on plastic wells by dry-coating
# Method: The ability of oleclumab (alone or in combination with durvalumab) to induce cytokine release was evaluated in human in vitro assays using blood or peripheral blood mononuclear cell from healthy donors.
# [5] = GLP 5-week repeat IV bolus dose toxicity study in CD-1 mice; format: in vivo
# Method: (§2) Mouse and cynomolgus monkey were selected as pharmacologically relevant species for evaluation of the toxicity of oleclumab. […] Systemic and local toxicities of oleclumab were evaluated in Good Laboratory Practice (GLP) toxicity studies in CD-1 mice (5-week, repeat intravenous [IV] bolus dose, once every 4 days, total 9 doses) at 0 mg/kg, 100 mg/kg or 200 mg/kg and cynomolgus monkeys (5-week, repeat IV 30-minute infusion dose, once weekly, total 5 doses) at 0 mg/kg, 30.5 mg/kg, 103.7 or 300.7 mg/kg.
# [6] = GLP 5-week repeat IV infusion toxicity study in cynomolgus monkeys; format: in vivo
# Method: as §2
# [7] = Phase 1 study, pharmacokinetics and immunogenicity of oleclumab; format: in vivo; settings: human
# Method: (§3) Safety was assessed by the presence of adverse events (AEs), serious adverse events (SAEs), DLTs, and changes from baseline in laboratory parameters, vital signs, and electrocardiogram results. The endpoints for assessment of antitumor activity included objective response (OR), disease control (DC), duration of response (DoR), progression-free survival (PFS), and overall survival (OS). RECIST v1.1 was used for assessment of tumor response. Pharmacokinetic parameters included, but were not limited to, maximum observed concentration, area under the concentration time curve, clearance, and terminal half-life. The endpoints for assessment of immunogenicity of oleclumab and durvalumab included the number and percentage of subjects who developed detectable anti-drug antibodies and the endpoints for assessment of pharmacodynamic activity included assessment of target expression (e.g., CD73, PD-L1) in tumor biopsy specimens.
# (§4) In the oleclumab monotherapy dose-escalation arm, sequential cohorts of 3 to 6 subjects each received 1 of 4 dose levels of oleclumab (5, 10, 20, or 40 mg/kg) via IV infusion Q2W unless the maximum tolerated dose (MTD) was reached before all dose-escalation cohorts were completed (FIG. 8). In the oleclumab/durvalumab combination therapy dose-escalation arm, sequential cohorts of 3 to 6 subjects each received 1 of 4 dose levels of oleclumab (5, 10, 20, or 40 mg/kg) and a single dose level of 10 mg/kg durvalumab via IV infusion Q2W, unless the MTD was reached before all dose-escalation cohorts were completed (FIG. 8). If the MTD of oleclumab was exceeded at the 5 mg/kg dose level in the monotherapy or combination therapy arm, a lower dose level of 2 mg/kg oleclumab was explored in that arm.
# The following PK data is based on a total of 97 subjects following treatment with oleclumab 5 to 40 mg/kg Q2W administered either as monotherapy (n=40) or in combination with durvalumab at 10 mg/kg Q2W (n=57). […] Serum exposures were similar when oleclumab was administered either alone or in combination with durvalumab.
# CD73 [8] = biological target: T1, CD73; assay: Phase 1 study, pharmacodynamics (soluble, T cell and tumor CD73); format: in vivo; settings: for CD73 surface expression on peripheral T cells (MFI, percent CD73+ CD4 and CD8 cells): human
# Method: as §3, §4
# [9] = cynomolgus monkey, in vivo, 300.7 mg/kg
substance,measurement,setting,value
durvalumab: antibody that selectively binds PD-L1 and blocks the binding of PD-L1 to the PD-1 and CD80 receptors,"ORR, durvalumab monotherapy",EGFRm NSCLC,9.8%
"oleclumab: human immunoglobulin G1 lambda mAb that selectively binds to and inhibits the ectonucleotidase activity of CD73; VL SEQ ID NO: 1, VH SEQ ID NO: 2",IgG titers to EBV gp125 and CMV gB,[1],did not vary with oleclumab treatment
same,T cell responses to EBV BZLF1 and inactivated human CMV,[1],did not vary consistently with oleclumab treatment
same,serum exposure target,CD73 [2],52 µg/mL
same,"T cell responses to ex vivo KLH stimulation (IFN-γ, IL-2 ELISPOT of PBMC)",[3],did not vary with oleclumab treatment; also recorded: did not increase
same,anti-KLH IgM and IgG antibody responses (KLH TDAR),[3],did not show dose-dependent increase; also recorded: did not enhance
same,responses to exogenous antigen (KLH),[3],did not enhance responses
same,cytokine release,[4],did not induce cytokine release
same,no-observed-adverse-effect level (NOAEL),"[5]; CD-1 mice, highest dose tested",200 mg/kg/dose
same,AUC0-96hr,"[5]; mouse, in vivo, 200 mg/kg","229,000 μg·hr/mL"
same,Cmax,"[5]; mouse, in vivo, 200 mg/kg","6,200 μg/mL"
same,"effects on safety pharmacology endpoints (ECGs, blood pressure, behavioral examinations)","[6]; cynomolgus monkey, in vivo",no oleclumab-related effects
same,AUC0-168.5hr,[6]; [9],"834,000 μg·hr/mL"
same,Cmax,[6]; [9],"11,000 μg/mL"
same,no-observed-adverse-effect level (NOAEL),"[6]; cynomolgus monkeys, highest dose tested",300.7 mg/kg/dose
same,anti-drug antibodies (ADAs),[7],No ADAs were detected
same,estimated effective half-life in the dosing duration,[7],~13 days
same,serum concentration expected to saturate >99% CD73,[7],above 40 μg/mL
same,serum exposures alone versus in combination with durvalumab,[7]; 5 to 40 mg/kg Q2W,similar
same,increase of Ctrough with dose,[7]; from oleclumab 5 to 10 mg/kg,more than proportional
same,increase of Ctrough with dose,[7]; from oleclumab 10 to 40 mg/kg,approximately dose proportional
same,PK linearity at lowest dose,"[7]; oleclumab 5 mg/kg Q2W, monotherapy and combination cohorts",nonlinear PK
same,PK linearity at higher doses,[7]; oleclumab 10 mg/kg and higher Q2W,Linear PK
same,tissue cross reactivity staining,human tissue panel,staining with oleclumab was observed in multiple cell types
same,CD73 staining tumor cells by IHC,"CD73 [8]; 40 mg/kg dose, 20 days after treatment initiation",decrease in CD73 staining tumor cells
same,total CD4 and CD8 cells,"CD73 [8]; human peripheral blood, across all doses",without a concomitant decrease
same,CD73 enzymatic activity in tumor microenvironment,CD73 [8]; human tumor staining,inhibited CD73 enzymatic activity
same,"CD73 surface expression on peripheral T cells (MFI, percent CD73+ CD4 and CD8 cells)",CD73 [8]; across all doses,decreased CD73 on peripheral T cells
same,"CD73 surface expression on peripheral T cells (MFI, percent CD73+ CD4 and CD8 cells)","CD73 [8]; across all doses, listed as Oleclumab",decreased CD73 surface expression
same,free serum soluble CD73 levels,"CD73 [8]; majority of subjects at all times after the first dose, limit of detection",< 0.25 ng/mL
same,patients with decreased tumoral CD73 expression,"CD73 [8]; oleclumab alone, patients who expressed >5% 2+/3+ CD73 at baseline",5/9
same,CD8+ TILs,CD73 [8]; samples with decreased tumoral CD73,increasing CD8+ TILs in all 5 samples
